Source: publication PMC2777755
pKd: −log10 of the molar value. Like-named read-outs stand apart in the source and are kept apart here.

Tests used:
[1] = target: Ste5 minimal scaffold domain (Ste5-ms), fluorescein-labeled (S. cerevisiae) (UniProt P32917); test: fluorescence polarisation
[2] = target: Fus3 (Saccharomyces cerevisiae) (UniProt P16892); details: cited from earlier work
[3] = target: Fus3 (Saccharomyces cerevisiae) (UniProt P16892); details: cited from earlier work; remark: listed apart in the source
[4] = target: Kss1 (Saccharomyces cerevisiae) (UniProt P14681); details: cited from earlier work
UniProt P14681, sequence (P14681 whole entry): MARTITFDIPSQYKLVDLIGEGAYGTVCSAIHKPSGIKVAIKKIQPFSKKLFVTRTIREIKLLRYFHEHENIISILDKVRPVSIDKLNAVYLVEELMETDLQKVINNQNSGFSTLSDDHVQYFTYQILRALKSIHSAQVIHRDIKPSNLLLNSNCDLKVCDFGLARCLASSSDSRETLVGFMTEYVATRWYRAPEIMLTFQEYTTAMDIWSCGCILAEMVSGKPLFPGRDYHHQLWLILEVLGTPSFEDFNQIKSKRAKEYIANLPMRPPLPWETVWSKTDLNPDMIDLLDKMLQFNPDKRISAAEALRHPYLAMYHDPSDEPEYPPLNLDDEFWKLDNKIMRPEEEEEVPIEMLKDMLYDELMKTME

UniProt P16892, sequence (P16892 whole entry): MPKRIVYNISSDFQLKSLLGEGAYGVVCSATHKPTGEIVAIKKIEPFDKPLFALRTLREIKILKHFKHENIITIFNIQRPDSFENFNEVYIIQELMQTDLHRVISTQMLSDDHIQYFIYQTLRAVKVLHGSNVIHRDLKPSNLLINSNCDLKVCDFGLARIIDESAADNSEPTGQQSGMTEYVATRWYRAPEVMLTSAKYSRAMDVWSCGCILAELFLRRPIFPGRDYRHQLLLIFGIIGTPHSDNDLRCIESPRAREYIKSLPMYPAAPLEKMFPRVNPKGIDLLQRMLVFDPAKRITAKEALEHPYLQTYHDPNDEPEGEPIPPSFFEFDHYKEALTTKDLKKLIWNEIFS

With “MAPKK Ste7 (from UniProt P06784 1-515) (enzyme)” as the substance, how does the pKd [1] read?
The pKd was 7.12.

With Ste5 288-316 (from UniProt P32917) as the substance, how does the pKd [2] read?
The pKd was 6.00.

With “Ste7 docking motif (from UniProt P06784)” as the substance, how does the pKd [3] read?
The pKd was 7.00.

What about the pKd [4] of the same substance?
Its pKd is 7.00.
